One experiment concerns the target T1, DnaA L290A (Escherichia coli, UniProt P03004 1-467, L290A).
T1 sequence (looked up): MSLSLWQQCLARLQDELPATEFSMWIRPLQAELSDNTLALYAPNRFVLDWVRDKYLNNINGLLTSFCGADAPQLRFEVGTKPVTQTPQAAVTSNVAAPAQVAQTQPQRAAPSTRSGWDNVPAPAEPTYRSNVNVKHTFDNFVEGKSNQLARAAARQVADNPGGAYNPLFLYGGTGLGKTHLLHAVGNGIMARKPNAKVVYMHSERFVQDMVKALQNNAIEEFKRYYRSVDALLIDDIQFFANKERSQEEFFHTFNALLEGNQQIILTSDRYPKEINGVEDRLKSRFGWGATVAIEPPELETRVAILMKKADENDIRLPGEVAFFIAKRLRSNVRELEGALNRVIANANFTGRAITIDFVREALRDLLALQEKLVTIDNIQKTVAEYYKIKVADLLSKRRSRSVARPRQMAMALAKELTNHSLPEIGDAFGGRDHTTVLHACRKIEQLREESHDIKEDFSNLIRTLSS
The experiment in a line: native gel or EMSA. Background: A gel shift assay detects complexes by their altered migration in electrophoresis.

A further experiment addresses T2, DnaA Q208A (Escherichia coli, UniProt P03004 1-467, Q208A).
T2 sequence (looked up): T1 sequence (looked up) with Q208A, A290L
Nature of the experiment: native gel or EMSA.

Positions count from the first letter of the chain named.

B1: DiaA (DnaA initiator-associating protein) (natural protein, Escherichia coli, UniProt P66817 1-196, looked up)
chain: MQERIKACFTESIQTQIAAAEALPDAISRAAMTLVQSLLNGNKILCCGNGTSAANAQHFAASMINRFETERPSLPAIALNTDNVVLTAIANDRLHDEVYAKQVRALGHAGDVLLAISTRGNSRDIVKAVEAAVTRDMTIVALTGYDGGELAGLLGPQDVEIRIPSHRSARIQEMHMLTVNCLCDLIDNTLFPHQDD
Take B1: the binding result with DnaA L290A and in the experiment with DnaA Q208A was “binds” throughout.

The record behind these values is publication PMC6868365 (Nucleic Acids Research, 2019).
